Assay results: patent US20140234868A1, “USE FOR GLYCOLIPOPROTEIN GINTONIN, ISOLATED AND IDENTIFIED FROM GINSENG, AS A NATURAL MEDICAL-PLANT DERIVED LIGAND” (KONKUK UNIVERSITY INDUSTRIAL COOPERATION CORP., priority 2011, published 2014)

T1: LPA3 receptor (Homo sapiens, UniProt Q9UBY5)
T1 construct: host or cells: B103 rat neuroblastoma cells
T1 sequence (Q9UBY5 1-353): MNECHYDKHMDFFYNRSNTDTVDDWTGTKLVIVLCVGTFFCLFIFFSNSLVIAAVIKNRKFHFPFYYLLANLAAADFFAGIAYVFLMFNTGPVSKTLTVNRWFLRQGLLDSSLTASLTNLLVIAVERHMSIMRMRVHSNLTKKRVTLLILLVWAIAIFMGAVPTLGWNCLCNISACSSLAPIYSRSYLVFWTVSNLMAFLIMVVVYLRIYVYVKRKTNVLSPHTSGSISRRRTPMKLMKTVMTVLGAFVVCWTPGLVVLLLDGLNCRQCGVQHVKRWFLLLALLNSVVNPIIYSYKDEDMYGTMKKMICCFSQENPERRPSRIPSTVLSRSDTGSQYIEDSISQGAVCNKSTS

B1: gintonin: ginseng-derived glycolipoprotein; structural protein of ginseng major latex-like protein (MLP151) and ribonuclease-like storage proteins; crude gintonin used in tests (protein)
chain 1: MGLTGKLICQTGIKSDGDVFHELFGTRPHHVPNITPANIQGCDLHEGEFGKVGSVVIWNYSIDGNAMIAKEEIVAIDEEDKSVTFKVVEGHLFEEFKSIVFSVHVDTKGEDNLVTWSIDYEKLNESVKDPTSYLDFLLSVTRDIEAHHLPK
chain 2: RSDYPWAMFALRLQWPAGFCEVNNACDTKSLLNTFTIHGLYPYNAKGTPALYCDGTAFDVNSVSDFLAEMHLAWPSHETNTEDIQFWEHEWKKHGRCSEALLKQTDYFRTALAFRKAFDIVGLLNQEGIYPNNDLYRPKMIKEAIKKHLNAVPEIDFTKNENSEYVLTDINVCVNQQATRFVDCPTDDATDDYRLKFVRLPSKMKFADPRTNSII

Assays:
LPA3 receptor = molecular target: T1, LPA3 receptor; assay: Intracellular free Ca2+ (Fura-2AM) in LPA3-expressing B103 cells; assay type: cell-based
Text: LPA family receptors are endogenous to cells of most organs. B103 rat neuroblastoma cells, known as LPA receptor-null cells (Valentine et al., Biochim Biophys Acta 1780. 597-605) were transiently transfected with a plasmid (vector) carrying one of genes coding for LPA1(edg-2), LPA2(edg-4), LPA3(edg-7), LPA4, LPA5 and LPA6 receptors or a plasmid carrying none of them (empty vector). Two or three days after transfection, the cells are suspended, and made permeable. Then, the permeable cells are treated with Fura-2AM, a fluorescent dye binding to calcium, and then with gintonin, followed by spectrofluorephotometry to examine whether gintonin induces an increase in intracellular free Ca^2+ level.
(1) preparing large quantities of plasmids carrying respective LPA family receptor genes and an empty plasmid carrying none of them through amplification and purification (maxi-preparation); (2) verifying the expression of LPA receptors wherein B103 cells are transfected with haematoglutin (HA)-tagged LPA receptors, and then subjected to Western blotting analysis using an anti-HA primary antibody and a horseradish peroxidase (HRP)-conjugated secondary antibody to develop a color; (3) verifying the expression of LPA receptors wherein B1-3 cells are transfected with haematoglutin (HA)-tagged LPA receptors, and then subjected to confocal laser microscopy using an anti-HA antibody and a fluorescence dye Cy3-conjugated secondary antibody; (4) transfecting the empty plasmid and each of the plasmids carrying LPA family receptor genes into B103 cells; (5) treating the transfected B103 cells with trypsin (0.05% trypsin with EDTA, w/v) 2-3 days post-transfection, to give a cell suspension; (6) culturing the suspended B103 cells with Fura-2AM (2.5 μM); and (7) treating the suspended B103 cells with gintonin and quantifying a change in intracellular free Ca^2+ level in a cuvette by spectrofluorephotometry using Fura-2AM.
Human LPA (lysophosphatidic acid) receptor subtypes, orphan GPCRs (G protein coupled receptors) and plasmids carrying GPCRs were purchased from Missouri S&T resource Center (www.cDNA.org).
The transient transfection of LPA receptor subtypes was carried out with the aid of Lipofectamine 2000 of Invitrogen. A plasmid (10.8 μg) carrying each LPA receptor (LPA1, LPA2, LPA3, LPA4, LPA5, and LPA6) was transfected into B103 cells grown in 10-cm dishes, and incubated for 2 days prior for use in experiments.
In this Example, gintonin, or ginsenoside Rb1 or Rg1 was examined for its ability to induce a transient increase of [Ca^2+]i in Fura-2AM-loaded B103 cells which were transfected with LPA receptors and in Fura-2AM-loaded B103 cells which were not transfected with LPA receptors. To this end, B103 cells (2˜4×10^6/ml) pre-treated with Fura-2AM were suspended in a 1.5 mM Ca^2+-containing buffer or Ca^2+-free buffer, and incubated 37° C. for 30 min, followed by analyzing intracellular calcium levels in the B103 cells in the presence of gintonin or ginsenosides.
Briefly, B103 cells (1˜2×10^6/ml) were mixed with 2.5 μM Fura 2-AM in a Ca^2+ buffer (pH 7.4) containing NaCl 120 mM, KCl 5 mM, MgCl2 1 mM, CaCl2 1.5 mM, glucose 10 mM, and HEPES 25 mM, and a Ca^2+ free buffer (pH 7.4) containing NaCl 120 mM, KCl 5 mM, MgCl2 1 mM, EGTA 0.2 mM, glucose 10 mM, and HEPES 25 mM at 37° C. for 30 min in water bath with shaking according to the Jørgensen method, and washed three times with Ca^2+ buffer or Ca^2+ free buffer to remove excess Fura-2AM.
[Ca^2+]i was estimated in Fura 2AM-loaded cells in suspension using an RF-5300PC intracellular ion measurement system (Shimadzu Corporation, Japan).
Briefly, Fura 2-AM loaded cells were diluted with an experimental medium to a final density of 2˜4×10^6 cells/mL, and transferred to polystyrene cuvettes (Elkay Ultra-VU). The cells were stirred using Teflon-coated magnets, and the cuvette housing was thermostatically controlled at 37° C. The excitation wavelengths were alternated between 340 and 380 nm under computer control. […]

BKCaK+ channels = assay: BKCa K+ channel activity in Xenopus oocytes, two-electrode voltage clamp; assay type: cell-based
Outline: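 Two-electrode voltage clamp was performed at room temperature on stage V-VI Xenopus oocytes. Oocytes were perfused with Cl−/Ca2+-free solution, pH 7.4, containing 500 μM anthracene-9-carboxylic acid. Outward currents were recorded on 400 ms steps from −80 mV holding to +40 mV.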

Molecule	effect on gintonin-induced intracellular calcium increase (LPA3 receptor; LPA3-expressing cells treated with antagonist)	effect on gintonin-induced BKCaK+ channel activation (BKCaK+ channels; Kil6425 10 μM, U73122, U73343 1 μM, 2-APB 100 μM, BAPTA-AM, PMA 1 μM)	transient increase of [Ca2+]i when extracellular Ca2+ was depleted (LPA3 receptor; Ca2+-free buffer containing 0.2 mM EGTA, LPA3-expressing cells)	EC50 (LPA3 receptor; LPA3 receptor, B103 cells, read-out: EC50, LPA receptor-mediated intracellular calcium increase) [nM]	increase in intracellular calcium level (LPA3 receptor; gintonin 1 μg/ml, LPA3-expressing B103 cells) [µM]	increase of intracellular calcium level in co-existence with ginsenosides (LPA3 receptor; gintonin in the presence of ginsenoside Rb1 or Rg1)	ED50, BKCaK+ channel activation (BKCaK+ channels; BKCaK+ channels expressed in Xenopus oocytes) [mg/L]	BKCa channel activity on repetitive treatment (desensitization) (BKCaK+ channels; repetitive treatments, data not shown)
Cc1noc(-c2ccc(CSCCC(=O)O)cc2)c1NC(=O)OC(C)c1ccccc1Cl (centres unmarked) [Kil6425]	did not increase in intracellular calcium level even in the presence of gintonin	reduced the gintonin-induced activation of BKCaK^+ channels						
B1			at a greatly lowered level	0.12 ± 0.01	206.5 ± 11.2	induce an increase in intracellular calcium level by activating LPA receptors in spite of co-existence with the ginsenosides	0.71 ± 0.08	Repetitive treatments of gintonin reduced BKa channel activity
